Among the data in doi:10.1101/591263 are Kd values, retold here.

This data set concerns dSpCas9-GFP (Streptococcus pyogenes). Kind of data set: MST. The note with it: MST: 20 mM HEPES pH 7.5, 150 mM KCl, 1 mM DTT, 10 mM MgCl2.
Consider “VEGFA3 off-target (30 bp) with VEGFA3 sgRNA”, for which the Kd is 142 nM.

The substance EMX1 target (30 bp) with EMX1 sgRNA gave a Kd of 10.9 nM.

EMX1 off-target (30 bp) with EMX1 sgRNA: the Kd is 27.2 nM.

The substance VEGFA3 target (30 bp) with VEGFA3 sgRNA registered a Kd of 49.6 nM.
